Experimental data taken from publication PMC3825789 (Nature biotechnology, 2013).

Target: insulin (Homo sapiens (species ), UniProt P01308)
Test: ELISA

Sequence of insulin (P01308 whole entry, looked up): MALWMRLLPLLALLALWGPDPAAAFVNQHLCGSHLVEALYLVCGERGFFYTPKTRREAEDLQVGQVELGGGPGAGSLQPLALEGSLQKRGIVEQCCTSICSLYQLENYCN

B1: ibalizumab L chain mutant LM52 (antibody, V domains shown)
VH: QVQLQQSGPEVVKPGASVKMSCKASGYTFTSYVIHWVRQKPGQGLDWIGYINPYNDGTDYDEKFKGKATLTSDTSTSTAYMELSSLRSEDTAVYYCAREKDNYATGAWFAYWGQGTLVTVSS
VL: DIVMTQSPDSLAVSLGERVTMNCKSSQSLLYSTNQKNYLAWYQQKPGQSPKLLIYWANSTESGVPDRFSGSGSGTDFTLTISSVQAEDVAVYYCQQYYSYRTFGGGTKLEIK
binding result: no binding

B2: ibalizumab (wild type) (antibody, V domains shown)
VH: QVQLQQSGPEVVKPGASVKMSCKASGYTFTSYVIHWVRQKPGQGLDWIGYINPYNDGTDYDEKFKGKATLTSDTSTSTAYMELSSLRSEDTAVYYCAREKDNYATGAWFAYWGQGTLVTVSS
VL: DIVMTQSPDSLAVSLGERVTMNCKSSQSLLYSTNQKNYLAWYQQKPGQSPKLLIYWASTRESGVPDRFSGSGSGTDFTLTISSVQAEDVAVYYCQQYYSYRTFGGGTKLEIK
binding result: no binding
